Experiments:
human C5 [1] = target: T1, human C5 (human, UniProt P01031 19-1676); assay: cell-based or functional assay
African green monkey C5 [2] = target: T2, African green monkey C5 (African green monkey); assay: cell-based or functional assay
human C5 R885H-mmh [3] = target: human C5 R885H-mmh (human, UniProt P01031 19-1676); assay: cell-based or functional assay
human C5 R885C-mmh [4] = target: human C5 R885C-mmh (human, UniProt P01031 19-1676); assay: cell-based or functional assay
human C5 [5] = target: T1, human C5; assay: cell-based or functional assay; remark: listed apart in the source
African green monkey C5 [6] = target: T2, African green monkey C5; assay: cell-based or functional assay; remark: listed apart in the source
Cynomolgus monkey C5 = Cynomolgus monkey C5 (cynomolgus monkey, UniProt A0A2K5U1T1 19-1676); assay: cell-based or functional assay
human C5 [7] = target: T1, human C5; assay: SPR (Biacore), mAb captured, dissociation of human C5 at pH7.4 vs pH6.0, 37°C
Protocol: Effect of pH on the rate of dissociation of recombinant human C5 bound to purified anti-C5 monoclonal antibodies was determined using a real-time surface plasmon resonance biosensor using a Biacore T200 instrument. The Biacore sensor surface was first derivatized by amine coupling with a monoclonal mouse anti-human Fc antibody (GE, # BR-1008-39) to capture anti-C5 monoclonal antibodies expressed with human IgG4 Fc. All Biacore binding studies were performed using two running buffers PBS-T, pH7.4 (0.01M Na₂HPO₄/NaH₂PO₄, 0.15M NaCl, 0.05% v/v Tween-20, adjusted to pH7.4) and PBS-T, pH6.0 (0.01M Na₂HPO₄/NaH₂PO₄, 0.15M NaCl, 0.05% v/v Tween-20, adjusted to pH6.0). […] Binding dissociative half-lives (t %) were calculated from kd as: […]

monkey C5-mmh [8] = target: T3, monkey C5-mmh (monkey, UniProt P01031 19-1676 (human entry), limits assumed); assay: SPR (Biacore), mAb captured, dissociation of monkey C5 at pH7.4 vs pH6.0, 37°C
T3 construct: recombinant, with C-terminal myc-myc-hexahistidine tag
T3 chain: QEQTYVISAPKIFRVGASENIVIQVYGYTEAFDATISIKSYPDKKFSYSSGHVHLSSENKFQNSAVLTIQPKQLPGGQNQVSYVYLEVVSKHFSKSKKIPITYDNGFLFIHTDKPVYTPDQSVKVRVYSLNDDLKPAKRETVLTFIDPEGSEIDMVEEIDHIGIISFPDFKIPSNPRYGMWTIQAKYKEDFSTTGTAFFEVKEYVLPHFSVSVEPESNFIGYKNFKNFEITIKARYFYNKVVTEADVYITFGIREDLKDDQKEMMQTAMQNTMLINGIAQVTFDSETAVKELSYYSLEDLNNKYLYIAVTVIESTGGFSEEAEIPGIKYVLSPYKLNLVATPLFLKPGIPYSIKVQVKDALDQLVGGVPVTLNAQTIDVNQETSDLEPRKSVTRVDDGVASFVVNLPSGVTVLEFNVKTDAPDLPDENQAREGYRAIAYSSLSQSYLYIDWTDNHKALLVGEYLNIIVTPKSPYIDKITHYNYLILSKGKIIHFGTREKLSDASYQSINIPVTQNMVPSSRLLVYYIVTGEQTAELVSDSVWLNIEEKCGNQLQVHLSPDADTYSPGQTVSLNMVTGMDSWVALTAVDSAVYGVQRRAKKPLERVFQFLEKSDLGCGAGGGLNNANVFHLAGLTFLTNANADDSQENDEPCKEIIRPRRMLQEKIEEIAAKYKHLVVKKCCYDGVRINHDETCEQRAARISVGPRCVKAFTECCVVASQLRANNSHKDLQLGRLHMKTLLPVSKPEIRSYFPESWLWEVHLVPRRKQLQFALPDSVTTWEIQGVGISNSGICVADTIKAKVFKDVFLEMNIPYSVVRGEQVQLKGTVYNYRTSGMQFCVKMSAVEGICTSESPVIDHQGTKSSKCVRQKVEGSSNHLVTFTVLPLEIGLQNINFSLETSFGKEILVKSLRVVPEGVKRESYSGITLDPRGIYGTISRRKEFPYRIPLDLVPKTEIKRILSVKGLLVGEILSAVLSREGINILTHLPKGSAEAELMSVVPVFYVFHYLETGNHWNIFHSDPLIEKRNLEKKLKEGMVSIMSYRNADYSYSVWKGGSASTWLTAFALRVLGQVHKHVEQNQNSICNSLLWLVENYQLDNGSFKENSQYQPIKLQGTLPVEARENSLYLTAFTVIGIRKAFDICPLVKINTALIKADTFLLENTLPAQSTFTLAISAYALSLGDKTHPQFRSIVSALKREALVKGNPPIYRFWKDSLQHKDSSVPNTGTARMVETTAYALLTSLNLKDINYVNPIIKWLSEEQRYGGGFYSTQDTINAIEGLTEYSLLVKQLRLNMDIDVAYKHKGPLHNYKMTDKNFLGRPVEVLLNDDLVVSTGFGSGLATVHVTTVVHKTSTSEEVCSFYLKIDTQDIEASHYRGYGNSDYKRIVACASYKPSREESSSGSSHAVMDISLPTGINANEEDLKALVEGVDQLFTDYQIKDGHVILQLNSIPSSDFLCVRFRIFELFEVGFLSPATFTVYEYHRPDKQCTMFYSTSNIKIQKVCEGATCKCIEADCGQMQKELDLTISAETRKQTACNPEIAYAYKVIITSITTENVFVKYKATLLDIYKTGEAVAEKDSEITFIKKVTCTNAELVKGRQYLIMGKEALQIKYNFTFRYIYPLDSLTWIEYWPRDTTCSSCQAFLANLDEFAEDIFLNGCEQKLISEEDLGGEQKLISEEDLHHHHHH

monkey C5-mmh [9] = target: T4, monkey C5-mmh (monkey, UniProt P01031 19-1676 (human entry), limits assumed); assay: SPR, mAb captured via anti-hFc, 37C
T4 construct: Recombinant monkey C5 with a C-terminal myc-myc-hexahistidine tag
T4 chain: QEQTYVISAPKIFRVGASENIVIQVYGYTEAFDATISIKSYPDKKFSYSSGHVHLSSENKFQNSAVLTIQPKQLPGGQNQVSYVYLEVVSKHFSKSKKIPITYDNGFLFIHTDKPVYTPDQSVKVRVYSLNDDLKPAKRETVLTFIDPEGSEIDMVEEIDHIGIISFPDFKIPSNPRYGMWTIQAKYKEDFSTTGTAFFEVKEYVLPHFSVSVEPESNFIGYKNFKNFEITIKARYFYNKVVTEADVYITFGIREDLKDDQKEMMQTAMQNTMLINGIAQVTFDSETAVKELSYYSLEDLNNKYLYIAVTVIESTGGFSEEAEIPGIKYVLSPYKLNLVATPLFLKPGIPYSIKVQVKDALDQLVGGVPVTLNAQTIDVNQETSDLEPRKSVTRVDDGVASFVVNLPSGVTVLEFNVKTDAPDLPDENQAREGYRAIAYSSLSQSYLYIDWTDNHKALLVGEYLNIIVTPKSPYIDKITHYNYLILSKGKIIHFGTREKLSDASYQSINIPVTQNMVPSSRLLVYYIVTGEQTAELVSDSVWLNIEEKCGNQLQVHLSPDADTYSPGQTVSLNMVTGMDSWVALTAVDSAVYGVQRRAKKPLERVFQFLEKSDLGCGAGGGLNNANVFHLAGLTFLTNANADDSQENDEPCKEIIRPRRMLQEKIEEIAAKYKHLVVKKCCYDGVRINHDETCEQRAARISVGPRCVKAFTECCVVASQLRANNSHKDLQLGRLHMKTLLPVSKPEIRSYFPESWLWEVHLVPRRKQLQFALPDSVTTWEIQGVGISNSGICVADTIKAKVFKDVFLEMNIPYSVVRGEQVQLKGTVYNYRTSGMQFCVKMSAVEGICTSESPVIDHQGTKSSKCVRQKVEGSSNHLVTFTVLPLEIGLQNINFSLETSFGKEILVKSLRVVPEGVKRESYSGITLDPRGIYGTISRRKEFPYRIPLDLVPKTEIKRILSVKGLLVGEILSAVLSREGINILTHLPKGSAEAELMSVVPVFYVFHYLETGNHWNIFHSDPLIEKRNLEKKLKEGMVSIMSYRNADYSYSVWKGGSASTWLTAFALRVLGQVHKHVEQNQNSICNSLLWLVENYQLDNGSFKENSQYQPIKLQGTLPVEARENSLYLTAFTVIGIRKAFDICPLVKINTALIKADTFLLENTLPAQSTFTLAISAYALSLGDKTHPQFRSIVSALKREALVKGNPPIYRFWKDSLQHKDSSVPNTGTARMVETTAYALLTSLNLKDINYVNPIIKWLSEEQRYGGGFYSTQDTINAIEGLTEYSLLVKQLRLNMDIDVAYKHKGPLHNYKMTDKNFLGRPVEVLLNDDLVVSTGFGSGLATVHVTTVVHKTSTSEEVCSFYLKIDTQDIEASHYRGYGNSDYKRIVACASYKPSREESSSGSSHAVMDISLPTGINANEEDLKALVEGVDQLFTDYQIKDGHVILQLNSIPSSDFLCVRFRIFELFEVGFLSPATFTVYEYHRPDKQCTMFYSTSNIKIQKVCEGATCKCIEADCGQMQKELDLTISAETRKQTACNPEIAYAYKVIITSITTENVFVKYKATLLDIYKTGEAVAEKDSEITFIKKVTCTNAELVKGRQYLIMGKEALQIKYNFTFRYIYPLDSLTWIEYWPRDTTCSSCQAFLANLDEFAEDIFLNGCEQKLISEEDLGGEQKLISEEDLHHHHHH
How it was run: (§1)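 Anti-C5 mAbs were held by immobilised mouse anti-human Fc, and untagged or mmh-tagged C5 flowed 3 min, then buffer 8 min, in HBST pH 7.4.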

human C5 R885H-mmh [10] = target: T5, human C5 R885H-mmh (human, UniProt P01031 19-1676); assay: SPR, mAb captured via anti-hFc, 37C
T5 construct: also called human C5 variant R885H
How it was run: as §1

human C5 R885C-mmh [11] = target: T6, human C5 R885C-mmh (human, UniProt P01031 19-1676); assay: SPR, mAb captured via anti-hFc, 37C
T6 construct: also called human C5 variant R885C
How it was run: as §1

human C5 R885H-mmh [12] = target: T5, human C5 R885H-mmh; assay: SPR, mAb captured via anti-hFc, 25C
How it was run: as §1

human C5 R885C-mmh [13] = target: T6, human C5 R885C-mmh; assay: SPR, mAb captured via anti-hFc, 25C
How it was run: as §1

human C5 [14] = target: T7, human C5 (human, UniProt P01031 19-1676); assay: SPR, mAb captured via anti-hFc, dissociation at pH7.4 vs pH6.0, 25C
T7 construct: Bought human C5 (EMD #204888, said elsewhere to be purified from plasma); also called hC5; complement component 5
How it was run: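 Anti-C5 mAbs (human IgG4 Fc) captured on an amine-coupled mouse anti-human Fc surface; recombinant C5 dissociation followed by Biacore T200 in PBS-T (0.01M phosphate, 0.15M NaCl, 0.05% Tween-20) at pH7.4 or pH6.0. Dissociative half-life (t½) calculated from kd.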

B1: H4H12161P (antibody, human IgG4, V domains shown)
VH: EVQLVESGGDLVQPGGSLRLSCAASGFTFSDHYMDWVRQAPGKGLDWIGRIRNKANAYNTEYAASVRGRFTISRDDSQNLLYLQMNSLKTDDTAVYYCVRVWNYAYFAMDVWGQGTTVTVSS
VL: DIQMTQSPSSLSASVGDRVTITCRSSQNIGIFLNWYQQKPGEAPNLLISAASSLHSGVPSRFSGSGSGTDFTLTIGSLQPEDFATYYCQQTYNTIFTFGPGTKVDIK
notes: H4H: human IgG4 Fc with S108P hinge mutation
Human C5 [1]
  IC50, inhibition of CDC of Daudi cells, 1.66% human serum: 2.4 nM
African green monkey C5 [2]
  IC50, inhibition of CDC of Daudi cells, 1.66% African Green monkey serum: 2.6 nM
Human C5 R885H-mmh [3]
  IC50, inhibition of CDC of Daudi cells, C5 depleted human serum and 6.6 nM C5 Variant R885H: 1.8 nM
Human C5 R885C-mmh [4]
  IC50, inhibition of CDC of Daudi cells, C5 depleted human serum and 6.6 nM C5 Variant R885C: 1 nM
Human C5 [5]
  Human AP % Max Inhibition, hemolysis assay, NHS: 56.1%
  Human AP IC50, hemolysis assay, NHS: 25.5 nM
  Human CP % Max Inhibition, hemolysis assay, NHS: 93.7%
  Human CP IC50, hemolysis assay, NHS: 2.56 nM
African green monkey C5 [6]
  AGM AP % Max Inhibition, hemolysis assay, 5% serum: 35.7%
  AGM CP % Max Inhibition, hemolysis assay, 5% serum: 78.9%
  AGM Serum AP IC50, hemolysis assay, 5% serum: 47.5 nM
  AGM Serum CP IC50, hemolysis assay, 5% serum: 31.9 nM
Cynomolgus monkey C5
  Cyno AP % Max Inhibition, hemolysis assay, 5% serum: 98.4%
  Cyno CP % Max Inhibition, hemolysis assay, 5% serum: 100%
  Cyno Serum AP IC50, hemolysis assay, 5% serum: 7.8 nM
  Cyno Serum CP IC50, hemolysis assay, 5% serum: 27.9 nM
Human C5 [7]
  t½ Ratio pH7.4/pH6.0: ≤ 0.7
Monkey C5-mmh [8]
  t½ Ratio pH7.4/pH6.0: 10.7

B2: H4H11686N (antibody, V domains shown)
VH: QVQLVESGGGLVKPGGSLRLSCAASGFTFSDYYMSWIRQAPGKGLEWVSYISSSGNTIKYADSMKGRFTISRDNAKKSLFVEMNSLRAEDTAVYYCARYKSSSDYFDHWGQGTLVTVSS
VL: EIVLTQSPATLSLSPGERATLSCRASQSVRSYLAWYQQKPGQAPRLLIYDASNRATAIPARFSGSGSGTDFTLTISSLEPEDLAVYYCQQSGNWPLTFGGGTKVEIK
notes: also called H2M11686N
Monkey C5-mmh [9]
  100 nM monkey C5-mmh Bound (RU): 195 RU
  Kd: 8.88 nM
  koff: 0.00207 s⁻¹
  kon: 233000 M⁻¹ s⁻¹
  t1/2: 6 min
Human C5 R885H-mmh [10]
  100 nM Human C5 R885H-mmh Bound (RU): 74 RU
  Kd: 1.91 nM
  koff: 0.0008 s⁻¹
  kon: 419000 M⁻¹ s⁻¹
  t1/2: 14 min
Human C5 R885C-mmh [11]
  100 nM Human C5 R885C-mmh Bound (RU): 69 RU
  Kd: 2.78 nM
  koff: 0.000791 s⁻¹
  kon: 284000 M⁻¹ s⁻¹
  t1/2: 15 min
Human C5 R885H-mmh [12]
  100 nM Human C5 R885H-mmh Bound (RU): 259 RU
  Kd: 0.491 nM
  koff: 0.000106 s⁻¹
  kon: 216000 M⁻¹ s⁻¹
  t1/2: 109 min
Human C5 R885C-mmh [13]
  100 nM Human C5 R885C-mmh Bound (RU): 253 RU
  Kd: 0.534 nM
  koff: 9.49e-05 s⁻¹
  kon: 178000 M⁻¹ s⁻¹
  t1/2: 122 min
Human C5 [14]
  t1/2 Ratio pH7.4/pH6.0: 2

— patent US20170355757A1 (Regeneron, published 2017)
